The text below walks through data of the supplement of paper PMC9112550, “Optimization of the antimicrobial peptide Bac7 by deep mutational scanning” (BMC Biology, 2022).
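Also: peptides expressed intracellularly from a pBAD plasmid library in pooled LB shake-flask culture, induced with 0.3% L-arabinose, DNA abundance read by NGS, three biological replicates, DESeq2 with apeglm shrinkage.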

For the series, the system named is Escherichia coli TOP10. The experiment in a line: shrunken log2 fold change of peptide-encoding DNA abundance (4.5 h post-induction vs induction); higher = less antimicrobial activity (less host growth inhibition). The conditions noted are these: time post-induction: 4.5 h; library: site-saturation at positions 5, 18, 19, 20.
With RRIRIRPPRLPRPRPRPCGEPRP, the “shrunken log2 fold change” value was -0.0104.
For RRIRNRPPRLPRPRPRPIISPRP the value was 0.0108; for RRIRDRPPRLPRPRPRPGASPRP, 1.08; for RRIRYRPPRLPRPRPRPVANPRP, -0.0575.
The same measure for RRIRIRPPRLPRPRPRPISRPRP: -0.0044; for RRIRNRPPRLPRPRPRPCRRPRP: -0.103; for RRIRGRPPRLPRPRPRPIFVPRP: 0.42.
The same measure for RRIRPRPPRLPRPRPRPIWHPRP: -0.0776.
With RRIRGRPPRLPRPRPRPMPAPRP, the “shrunken log2 fold change” value worked out at 1.29.
For RRIRVRPPRLPRPRPRPPTYPRP the value was -0.432; for RRIRGRPPRLPRPRPRPAYAPRP, 0.0503; for RRIRRRPPRLPRPRPRPQASPRP, 0.0463.
For RRIRHRPPRLPRPRPRPMIDPRP, the “shrunken log2 fold change” value is -0.161.
Take RRIRQRPPRLPRPRPRPCEVPRP: the “shrunken log2 fold change” value was -0.00192.
For RRIRHRPPRLPRPRPRPRTCPRP the value was -0.0538; for RRIRERPPRLPRPRPRPIPLPRP, -0.275.
The same measure for RRIRFRPPRLPRPRPRPNWRPRP: -0.0764; for RRIRRRPPRLPRPRPRPVGKPRP: -0.105.
Turning to RRIRIRPPRLPRPRPRPYNTPRP, the “shrunken log2 fold change” value was -0.725.
The same measure for RRIRKRPPRLPRPRPRPHETPRP: -0.0327.
As for RRIRTRPPRLPRPRPRPRAWPRP, the “shrunken log2 fold change” value is 0.132.
As for RRIRNRPPRLPRPRPRPGTAPRP, the “shrunken log2 fold change” value was -0.0363.
With RRIRCRPPRLPRPRPRPATRPRP, the “shrunken log2 fold change” value amounted to 0.366.
The same measure for RRIRHRPPRLPRPRPRPEYPPRP: 0.0664.
In the case of RRIRNRPPRLPRPRPRPGAWPRP, the “shrunken log2 fold change” value stood at 0.0927.
Take RRIRPRPPRLPRPRPRPICYPRP: the “shrunken log2 fold change” value was -0.407.
For RRIRSRPPRLPRPRPRPSMSPRP the value was 0.0307; for RRIRMRPPRLPRPRPRPPGEPRP, 1.47; for RRIRPRPPRLPRPRPRPVEEPRP, 0.54.
For RRIRMRPPRLPRPRPRPHAQPRP the value was -0.015; for RRIRHRPPRLPRPRPRPWMPPRP, 0.0474.
As to RRIRSRPPRLPRPRPRPERMPRP, the “shrunken log2 fold change” value turned out to be 0.263.
For the sequence RRIRQRPPRLPRPRPRPTIWPRP, the “shrunken log2 fold change” value is -0.0969.
Turning to RRIRNRPPRLPRPRPRPMSWPRP, the “shrunken log2 fold change” value is -0.549.
The same measure for RRIRKRPPRLPRPRPRPNGNPRP: -0.146; for RRIRSRPPRLPRPRPRPKLHPRP: -0.0772; for RRIRARPPRLPRPRPRPWCKPRP: 0.102.
In the case of RRIRTRPPRLPRPRPRPIFMPRP, the “shrunken log2 fold change” value turned out to be 0.0645.
The same measure for RRIRDRPPRLPRPRPRPKKRPRP: 0.403.
On to RRIRYRPPRLPRPRPRPVDGPRP, for which the “shrunken log2 fold change” value is -0.0183.
As for RRIRARPPRLPRPRPRPYPEPRP, the “shrunken log2 fold change” value is -0.181.
For RRIRRRPPRLPRPRPRPLFGPRP, the “shrunken log2 fold change” value was 0.649.
The same measure for RRIRYRPPRLPRPRPRPSASPRP: -0.071; for RRIRNRPPRLPRPRPRPNHPPRP: -0.318; for RRIRCRPPRLPRPRPRPIKAPRP: 0.0144.
As for RRIRIRPPRLPRPRPRPKLFPRP, the “shrunken log2 fold change” value is -0.179.
Regarding RRIRGRPPRLPRPRPRPPYYPRP, the “shrunken log2 fold change” value was -0.0196.
The same measure for RRIRCRPPRLPRPRPRPEMEPRP: 0.00408; for RRIRTRPPRLPRPRPRPWYCPRP: -0.153.
The same measure for RRIRTRPPRLPRPRPRPNKTPRP: -0.0171; for RRIRCRPPRLPRPRPRPRAQPRP: 0.4.
For RRIRARPPRLPRPRPRPGTDPRP the value was 0.565; for RRIRARPPRLPRPRPRPGIGPRP, 0.524.
Take RRIRQRPPRLPRPRPRPYFNPRP: the “shrunken log2 fold change” value is -0.82.
Regarding RRIRIRPPRLPRPRPRPGCIPRP, the “shrunken log2 fold change” value was -0.523.
RRIRWRPPRLPRPRPRPVDMPRP: the “shrunken log2 fold change” value is -0.0613.
As for RRIRGRPPRLPRPRPRPINMPRP, the “shrunken log2 fold change” value is -0.0846.
The same measure for RRIRGRPPRLPRPRPRPRFDPRP: 0.382; for RRIRDRPPRLPRPRPRPIILPRP: 0.0057; for RRIRPRPPRLPRPRPRPHDDPRP: -0.421.
The same measure for RRIRRRPPRLPRPRPRPPLAPRP: 1.18.
On to RRIRHRPPRLPRPRPRPAYIPRP, for which the “shrunken log2 fold change” value was -0.00844.
For RRIRSRPPRLPRPRPRPLVWPRP the value was 0.272; for RRIRKRPPRLPRPRPRPDVCPRP, -0.0122; for RRIRTRPPRLPRPRPRPRNNPRP, -0.803.
In the case of RRIRDRPPRLPRPRPRPTFDPRP, the “shrunken log2 fold change” value is 0.853.
As to RRIRGRPPRLPRPRPRPFHTPRP, the “shrunken log2 fold change” value was -0.161.
The same measure for RRIRVRPPRLPRPRPRPKICPRP: -0.0576; for RRIRRRPPRLPRPRPRPAKDPRP: 0.185.
For RRIRYRPPRLPRPRPRPTATPRP the value was -0.038.
Consider RRIRLRPPRLPRPRPRPEWWPRP, for which the “shrunken log2 fold change” value was 0.124.
For RRIRYRPPRLPRPRPRPLNHPRP the value was -0.796; for RRIRVRPPRLPRPRPRPGNVPRP, -0.393; for RRIRCRPPRLPRPRPRPRNAPRP, 0.291.
For the sequence RRIRTRPPRLPRPRPRPYITPRP, the “shrunken log2 fold change” value was -1.19.
As to RRIRGRPPRLPRPRPRPRFHPRP, the “shrunken log2 fold change” value was found to be 0.0803.
For RRIRYRPPRLPRPRPRPLDAPRP the value was -0.0975; for RRIRHRPPRLPRPRPRPNWEPRP, -0.0833; for RRIRNRPPRLPRPRPRPTTQPRP, -0.222.
In the case of RRIRKRPPRLPRPRPRPGGGPRP, the “shrunken log2 fold change” value is 0.976.
Consider RRIRTRPPRLPRPRPRPMHPPRP, for which the “shrunken log2 fold change” value turned out to be 0.0402.
The same measure for RRIRSRPPRLPRPRPRPVMEPRP: -0.0868; for RRIRARPPRLPRPRPRPGLWPRP: 1.04.
For RRIRARPPRLPRPRPRPTNSPRP the value was 0.165; for RRIRVRPPRLPRPRPRPVHHPRP, -0.199; for RRIRTRPPRLPRPRPRPRMGPRP, 0.108.
For RRIRERPPRLPRPRPRPWFLPRP the value was -0.628; for RRIRSRPPRLPRPRPRPLTGPRP, 0.043.
Turning to RRIRSRPPRLPRPRPRPNDGPRP, the “shrunken log2 fold change” value was -0.0933.
The same measure for RRIRIRPPRLPRPRPRPGYNPRP: -1.28; for RRIRIRPPRLPRPRPRPATVPRP: -0.319.
